Measurements taken from patent publication US20080193465A1 (US Dept. of Health and Human Services, published 2008).

Experiments:
mature IGF-II = target: T1, mature IGF-II (human, UniProt P01344 25-91); assay: ELISA, 50 ng mature IGF-II immobilized, OD405
T1 construct: also called mature form of IGF-II
Method: Binding of the antibodies was measured by ELISA with 50 ng of either mature or precursor IGF-II immobilized on plates.

[1] = target: T2, long IGF-II (IGF-II precursor) (human, UniProt P01344 25-180); assay: ELISA, 50 ng long (precursor) IGF-II immobilized, OD405
T2 construct: Expressed in E. coli as His-tagged long IGF-II; also called long His6-IGF-II; His-tagged long IGF-II; not shown: His6 tag from the E. coli expression vector (pRSET)

[2] = target: T2, long IGF-II (IGF-II precursor); assay: ELISA, long IGF-II immobilized at 50 ng/well, bound Fab detected with anti-FLAG-HRP, OD405
IGF-I = target: T3, IGF-I (UniProt P05019 49-118); assay: ELISA, antigens immobilized on the plate, single Fab concentration not shown, OD405
T3 construct: also called insulin-like growth factor I

BSA = target: T4, BSA (Bos taurus, UniProt P02769); assay: as above
T4 construct: also called bovine serum albumin
T4 sequence (P02769 25-607 limits assumed): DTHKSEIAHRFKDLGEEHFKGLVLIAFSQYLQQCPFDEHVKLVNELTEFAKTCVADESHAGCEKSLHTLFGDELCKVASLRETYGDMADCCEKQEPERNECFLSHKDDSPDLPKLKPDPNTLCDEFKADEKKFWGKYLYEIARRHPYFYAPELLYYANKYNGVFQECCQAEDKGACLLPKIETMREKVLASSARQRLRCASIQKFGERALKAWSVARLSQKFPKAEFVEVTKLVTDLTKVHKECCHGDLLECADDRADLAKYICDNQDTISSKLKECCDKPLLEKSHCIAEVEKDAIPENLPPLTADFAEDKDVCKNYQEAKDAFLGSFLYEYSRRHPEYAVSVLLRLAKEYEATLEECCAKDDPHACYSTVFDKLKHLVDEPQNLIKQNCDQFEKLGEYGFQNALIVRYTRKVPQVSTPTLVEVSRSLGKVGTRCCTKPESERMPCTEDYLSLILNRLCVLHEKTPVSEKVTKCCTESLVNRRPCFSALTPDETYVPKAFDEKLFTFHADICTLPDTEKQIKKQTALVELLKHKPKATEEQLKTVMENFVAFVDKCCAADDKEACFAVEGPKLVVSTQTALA

[3] = target: T2, long IGF-II (IGF-II precursor); assay: ELISA, Fab on immobilized long IGF-II
[4] = target: T2, long IGF-II (IGF-II precursor); assay: Biacore SPR, Fab on long IGF-II
Method: (§1) The binding of the Fabs was measured by using ELISA and Biacore surface plasmon resonance technology. […] Interactions between various Fabs and IGF-II were analyzed by surface plasmon resonance technology using a BIACORE 1000 instrument (Biacore, Pharmacia, Piscataway, N.J.). IGF-II was covalently immobilized onto a sensor chip (CM5) using carbodiimide coupling chemistry. A control reference surface was prepared for nonspecific binding and refractive index changes. For analysis of the kinetics of interactions, varying concentrations of Fabs were injected at flow rate of 30 μl/min using running buffer containing 150 mM NaCl, 3 mM EDTA, and 0.005% P-20 (pH 7.4). The association and dissociation phase data were fitted simultaneously to a 1:1 Langumir global model by using the nonlinear data analysis program BIAevaluation 3.2. All the experiments were performed at 25° C.
(§2) Biacore analysis was used to examine their binding affinities in more detail.

[5] = target: T2, long IGF-II (IGF-II precursor); assay: Biacore 1000 SPR, IGF-II immobilized on CM5 chip, Fab injected, 1:1 Langmuir fit, 25° C.
Method: as §1, §2

Row | Binder | EC50 (read off the curve) (mature IGF-II) [nM] | EC50 (read off the curve) [1] [nM] | EC50 (read off the curve) [2] [nM] | binding result (IGF-I) | binding result (BSA) | EC50 [3] [nM] | Ka [4] [M⁻¹] | Kd [4] [nM] | kon [4] [M⁻¹ s⁻¹] | Kd [5] [nM] | koff [5] [s⁻¹] | kon [5] [M⁻¹ s⁻¹] | koff [4] [s⁻¹]
1 | IgG1 m606 (antibody, V domains shown, Whole IgG made from the Fab in 293 Free Style cells; also called IgG m606; m606 IgG; not shown: rest of the IgG1 heavy chain constant region supplied by vector pDR12) VH: QVQLVESGAEVKKPGASVKVSCKASGYTFTSYYMHWVRQAPGQGLEWMGIINPSGGSTSYAQKFQGRVTMTRDTSTSTVYMELSSLRSEDTAVYYCARDRSIAAMGWFDHWGQGTLVTVSS VL: DIQMTQSPSSVSASVGDRVTITCRASQGISSWLVWYQQKPGKAPKLLIYAASRLQSGVPSRFSGSGSGTLFTLIINNLQPEDFATYYCQQSNSVPLTFGGGTKVEIKR | ~0.4 | – | – | – | – | – | – | – | – | – | – | – | –
2 | IgG1 m610 (antibody, V domains shown, Whole IgG made from the Fab in 293 Free Style cells; also called IgG m610; IgG M610; not shown: rest of the IgG1 heavy chain constant region supplied by vector pDR12) VH: QVQLVQSGAEVKKPGASVKVSCKASGYTFTSYYMHWVRQAPGQGLEWMGIINPSGGSTSYAQKFQGRVTMTRDTSTSTVYMELSRLRSDDTAVYYCARDVQWLAYGMDVWGQGTTVTVSS VL: not shown | ~0.5 | ~0.4 | – | – | – | – | – | – | – | – | – | – | –
3 | Fab m606 (Fab, V domains shown, also called clone M606) VH: QVQLVESGAEVKKPGASVKVSCKASGYTFTSYYMHWVRQAPGQGLEWMGIINPSGGSTSYAQKFQGRVTMTRDTSTSTVYMELSSLRSEDTAVYYCARDRSIAAMGWFDHWGQGTLVTVSS VL: DIQMTQSPSSVSASVGDRVTITCRASQGISSWLVWYQQKPGKAPKLLIYAASRLQSGVPSRFSGSGSGTLFTLIINNLQPEDFATYYCQQSNSVPLTFGGGTKVEIKR | – | – | ~6 | no binding | no binding | ~4 | 1.41e+09 | 0.711 | 351000 | 0.7 | 0.00025 | 350000 | –
4 | Fab m610 (Fab, V domains shown, also called clone M610) VH: QVQLVQSGAEVKKPGASVKVSCKASGYTFTSYYMHWVRQAPGQGLEWMGIINPSGGSTSYAQKFQGRVTMTRDTSTSTVYMELSRLRSDDTAVYYCARDVQWLAYGMDVWGQGTTVTVSS VL: not shown | – | – | – | no binding | – | ~4 | 1.09e+09 | 0.918 | 286000 | 0.9 | 0.00026 | 290000 | 0.000262
5 | Fab m616 (Fab, V domains shown, Soluble Fab from E. coli periplasm; also called clone M616) VH: SQVQVLVKPSQTLSLTCAISGDSVSSNSAAWNWIRQSPSRGLEWLGRTYYRSKWYNDYAVSVKSRITINPDTSKNQFSLQLNSVTPEDTAVYYCAREKGIGRGITGTTIPYNWFDPWGQGTLVTVSS VL: SSYEITQPPSVSVTPGQTARITCSGDALPKHFAYWYQQKPGQAPVLIIYKDTERPSGIPERFSGSNSGNTATLTISRVEAGDEADYYCQVWDSSSGWVFGGGTKLTVQG | – | – | – | no binding | – | ~4 | – | – | – | – | – | – | –
